Abundance fitness data for 40 variants are collected here from the Human Domainome abundance scans (Beltran et al. 2025).

± gives the uncertainty stated by the source.

B1: TOX high mobility group box family member 3, residues 256 to 323; numbered along this chain, O15405 (parent)
chain: QKPVSAYALFFRDTQAAIKGQNPNATFGEVSKIVASMWDSLGEEQKQVYKRKTEAAKKEYLKALAAYR

In this data set the parent is B1. Nature of the data set: abundance fitness (aPCA) (normalised: wild type 0, dead -1); higher = more abundant; growth selection in yeast, the domain comes from the species named. The settings on record: Homo sapiens.
For QKPVSAYALFFRDTQAAIKGQNPNATFGEVSKIVASLWDSLGEEQKQVYKRKTEAAKKEYLKALAAYR [M37L], the abundance fitness is -0.219 ± 0.047.
As for QKPVSAYALFFRDTQAAIKGQNPNATFGEVSKIVASGWDSLGEEQKQVYKRKTEAAKKEYLKALAAYR [M37G], the figure is -0.486 ± 0.067; as for QKPVSAYALFFRDTQAAIKGQNPNATFGEVSKIVASKWDSLGEEQKQVYKRKTEAAKKEYLKALAAYR [M37K], 0.037 ± 0.065; as for QKPVSAYALFFRDTQAAIKGQNPNATFGEVSKIVASYWDSLGEEQKQVYKRKTEAAKKEYLKALAAYR [M37Y], -0.826 ± 0.32.
As for QKPVSAYALFFRDTQAAIKGQNPNATFGEVSKIVASFWDSLGEEQKQVYKRKTEAAKKEYLKALAAYR [M37F], the figure is -0.427 ± 0.13; as for QKPVSAYALFFRDTQAAIKGQNPNATFGEVSKIVASIWDSLGEEQKQVYKRKTEAAKKEYLKALAAYR [M37I], -0.422 ± 0.13; as for QKPVSAYALFFRDTQAAIKGQNPNATFGEVSKIVASDWDSLGEEQKQVYKRKTEAAKKEYLKALAAYR [M37D], -0.488 ± 0.16.
With QKPVSAYALFFRDTQAAIKGQNPNATFGEVSKIVASTWDSLGEEQKQVYKRKTEAAKKEYLKALAAYR [M37T], the abundance fitness is -0.036 ± 0.075.
With QKPVSAYALFFRDTQAAIKGQNPNATFGEVSKIVASEWDSLGEEQKQVYKRKTEAAKKEYLKALAAYR [M37E], the abundance fitness is -0.104 ± 0.065.
In the case of QKPVSAYALFFRDTQAAIKGQNPNATFGEVSKIVASNWDSLGEEQKQVYKRKTEAAKKEYLKALAAYR [M37N], the abundance fitness is -0.114 ± 0.13.
With QKPVSAYALFFRDTQAAIKGQNPNATFGEVSKIVASAWDSLGEEQKQVYKRKTEAAKKEYLKALAAYR [M37A], the abundance fitness is -0.063 ± 0.071.
With QKPVSAYALFFRDTQAAIKGQNPNATFGEVSKIVASHWDSLGEEQKQVYKRKTEAAKKEYLKALAAYR [M37H] the figure was -0.227 ± 0.085; with QKPVSAYALFFRDTQAAIKGQNPNATFGEVSKIVASVWDSLGEEQKQVYKRKTEAAKKEYLKALAAYR [M37V], -0.317 ± 0.064.
Take QKPVSAYALFFRDTQAAIKGQNPNATFGEVSKIVASRWDSLGEEQKQVYKRKTEAAKKEYLKALAAYR [M37R]: the abundance fitness was 0.013 ± 0.042.
On to QKPVSAYALFFRDTQAAIKGQNPNATFGEVSKIVASMWESLGEEQKQVYKRKTEAAKKEYLKALAAYR [D39E], for which the abundance fitness is 0.022 ± 0.084.
QKPVSAYALFFRDTQAAIKGQNPNATFGEVSKIVASMWLSLGEEQKQVYKRKTEAAKKEYLKALAAYR [D39L]: the abundance fitness was -0.224 ± 0.042.
With QKPVSAYALFFRDTQAAIKGQNPNATFGEVSKIVASMWASLGEEQKQVYKRKTEAAKKEYLKALAAYR [D39A], the abundance fitness is -0.026 ± 0.064.
As for QKPVSAYALFFRDTQAAIKGQNPNATFGEVSKIVASMWNSLGEEQKQVYKRKTEAAKKEYLKALAAYR [D39N], the figure is -0.217 ± 0.21.
For QKPVSAYALFFRDTQAAIKGQNPNATFGEVSKIVASMWGSLGEEQKQVYKRKTEAAKKEYLKALAAYR [D39G], the abundance fitness was -0.21 ± 0.065.
In the case of QKPVSAYALFFRDTQAAIKGQNPNATFGEVSKIVASMWCSLGEEQKQVYKRKTEAAKKEYLKALAAYR [D39C], the abundance fitness is -0.055 ± 0.43.
With QKPVSAYALFFRDTQAAIKGQNPNATFGEVSKIVASMWHSLGEEQKQVYKRKTEAAKKEYLKALAAYR [D39H] the figure was -0.065 ± 0.09; with QKPVSAYALFFRDTQAAIKGQNPNATFGEVSKIVASMWPSLGEEQKQVYKRKTEAAKKEYLKALAAYR [D39P], -0.829 ± 0.11; with QKPVSAYALFFRDTQAAIKGQNPNATFGEVSKIVASMWFSLGEEQKQVYKRKTEAAKKEYLKALAAYR [D39F], -0.167 ± 0.07.
As to QKPVSAYALFFRDTQAAIKGQNPNATFGEVSKIVASMWMSLGEEQKQVYKRKTEAAKKEYLKALAAYR [D39M], the abundance fitness was -0.191 ± 0.08.
Take QKPVSAYALFFRDTQAAIKGQNPNATFGEVSKIVASMNDSLGEEQKQVYKRKTEAAKKEYLKALAAYR [W38N]: the abundance fitness was -0.843 ± 0.26.
On to QKPVSAYALFFRDTQAAIKGQNPNATFGEVSKIVASMYDSLGEEQKQVYKRKTEAAKKEYLKALAAYR [W38Y], for which the abundance fitness is -0.206 ± 0.14.
Regarding QKPVSAYALFFRDTQAAIKGQNPNATFGEVSKIVASMHDSLGEEQKQVYKRKTEAAKKEYLKALAAYR [W38H], the abundance fitness is -0.727 ± 0.45.
Turning to QKPVSAYALFFRDTQAAIKGQNPNATFGEVSKIVASMGDSLGEEQKQVYKRKTEAAKKEYLKALAAYR [W38G], the abundance fitness is -0.855 ± 0.12.
As for QKPVSAYALFFRDTQAAIKGQNPNATFGEVSKIVASMCDSLGEEQKQVYKRKTEAAKKEYLKALAAYR [W38C], the figure is -0.743 ± 0.11; as for QKPVSAYALFFRDTQAAIKGQNPNATFGEVSKIVASMVDSLGEEQKQVYKRKTEAAKKEYLKALAAYR [W38V], -1.07 ± 0.14.
As for QKPVSAYALFFRDTQAAIKGQNPNATFGEVSKIVASMSDSLGEEQKQVYKRKTEAAKKEYLKALAAYR [W38S], the figure is -0.863 ± 0.098; as for QKPVSAYALFFRDTQAAIKGQNPNATFGEVSKIVASMFDSLGEEQKQVYKRKTEAAKKEYLKALAAYR [W38F], -0.716 ± 0.2.
In the case of QKPVSAYALFFRDTQAAIKGQNPNATFGEVSKIVASMIDSLGEEQKQVYKRKTEAAKKEYLKALAAYR [W38I], the abundance fitness was -1.2 ± 0.42.
In the case of QKPVSAYALFFRDTQAAIKGQNPNATFGEVSKIVASMPDSLGEEQKQVYKRKTEAAKKEYLKALAAYR [W38P], the abundance fitness is -1.03 ± 0.22.
For the variant QKPVSAYALFFRDTQAAIKGQNPNATFGEVSKIVASMTDSLGEEQKQVYKRKTEAAKKEYLKALAAYR [W38T], the abundance fitness is -1.28 ± 0.37.
With QKPVSAYALFFRDTQAAIKGQNPNATFGEVSKIVASMEDSLGEEQKQVYKRKTEAAKKEYLKALAAYR [W38E], the abundance fitness is -0.653 ± 0.12.
With QKPVSAYALFFRDTQAAIKGQNPNATFGEVSKIVASMMDSLGEEQKQVYKRKTEAAKKEYLKALAAYR [W38M] the figure was -0.416 ± 0.098; with QKPVSAYALFFRDTQAAIKGQNPNATFGEVSKIVASMDDSLGEEQKQVYKRKTEAAKKEYLKALAAYR [W38D], -0.789 ± 0.21; with QKPVSAYALFFRDTQAAIKGQNPNATFGEVSKIVASMKDSLGEEQKQVYKRKTEAAKKEYLKALAAYR [W38K], -0.799 ± 0.16.
On to QKPVSAYALFFRDTQAAIKGQNPNATFGEVSKIVASMRDSLGEEQKQVYKRKTEAAKKEYLKALAAYR [W38R], for which the abundance fitness was -0.918 ± 0.12.
